# T1: recombinant human activated Factor VII (FVIIa) (human, UniProt P08709 61-212; P08709 213-466, ten glutamate residues of the Gla domain may be gamma-carboxylated)
# T1 construct: chains tethered by a disulfide bond; also called Factor VIIa; rFVIIa
# T1 sequence 1: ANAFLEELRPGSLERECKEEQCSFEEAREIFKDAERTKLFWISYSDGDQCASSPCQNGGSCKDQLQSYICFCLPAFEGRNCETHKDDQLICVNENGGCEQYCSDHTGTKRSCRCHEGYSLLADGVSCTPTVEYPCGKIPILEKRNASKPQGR
# T1 sequence 2: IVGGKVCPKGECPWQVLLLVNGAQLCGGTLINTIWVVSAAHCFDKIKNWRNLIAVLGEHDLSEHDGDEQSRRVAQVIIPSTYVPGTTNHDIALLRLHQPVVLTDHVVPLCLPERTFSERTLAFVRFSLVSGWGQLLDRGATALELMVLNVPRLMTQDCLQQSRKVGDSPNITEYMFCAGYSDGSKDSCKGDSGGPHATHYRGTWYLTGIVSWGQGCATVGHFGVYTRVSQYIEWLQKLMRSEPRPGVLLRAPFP
# Biological target: T1, recombinant human activated Factor VII …
# Experiment: BLI (Fortebio)
row,Binder,Kd [nM]
1,"VH SEQ ID NO 650 / VL SEQ ID NO 334 (antibody, IgG4, V domains shown, humanized 11F2; IgG4 S228P/kappa) VH: QVQLQESGPGLVKPSQTLSLTCTVSGYSISSDSAWSWIRQPPGKKLEWIGYIQYSGSTNYNPSLKSRVTISRDTSKNQFSLKLSSVTAADTAVYYCARSVNYYGNSFAVGPWGQGTLVTVSS VL: EIVLTQSPATLSLSPGERATLSCRASQGISDYLHWYQQKPGQAPRLLIKYASQPATGIPARFSGSGSGTDFTLTISSLEPEDFAVYYCQNGHSFPLTFGQGTKLEIK",1.5
2,"VH SEQ ID NO 650 / VL SEQ ID NO 422 (antibody, IgG4, V domains shown, humanized 11F2; IgG4 S228P/kappa) VH: QVQLQESGPGLVKPSQTLSLTCTVSGYSISSDSAWSWIRQPPGKKLEWIGYIQYSGSTNYNPSLKSRVTISRDTSKNQFSLKLSSVTAADTAVYYCARSVNYYGNSFAVGPWGQGTLVTVSS VL: EIVLTQSPATLSLSPGERATLSCRASQGVSDYLAWYQQKPGQAPRLLIKYASQPATGIPARFSGSGSGTDFTLTISSLEPEDFAVYYCQQGHSFPLTFGQGTKLEIK",2600
3,"VH SEQ ID NO 650 / VL SEQ ID NO 342 (antibody, IgG4, V domains shown, humanized 11F2; IgG4 S228P/kappa) VH: QVQLQESGPGLVKPSQTLSLTCTVSGYSISSDSAWSWIRQPPGKKLEWIGYIQYSGSTNYNPSLKSRVTISRDTSKNQFSLKLSSVTAADTAVYYCARSVNYYGNSFAVGPWGQGTLVTVSS VL: EIVLTQSPATLSLSPGERATLSCRASQGISDYLHWYQQKPGQAPRLLIKYTSQPATGIPARFSGSGSGRDFTLTISSLEPEDFAVYYCQNGHSFPLTFGAGTKLELK",1.6
4,"VH SEQ ID NO 650 / VL SEQ ID NO 414 (antibody, IgG4, V domains shown, humanized 11F2; IgG4 S228P/kappa) VH: QVQLQESGPGLVKPSQTLSLTCTVSGYSISSDSAWSWIRQPPGKKLEWIGYIQYSGSTNYNPSLKSRVTISRDTSKNQFSLKLSSVTAADTAVYYCARSVNYYGNSFAVGPWGQGTLVTVSS VL: EIVLTQSPATLSLSPGERATLSCRASQGVSDYLAWYQQKPGQAPRLLIKYASQPATGIPARFSGSGSGTDFTLTISSLEPEDFAVYYCQNGHSFPLTFGQGTKLEIK",84
5,"VH SEQ ID NO 650 / VL SEQ ID NO 350 (antibody, IgG4, V domains shown, humanized 11F2; IgG4 S228P/kappa) VH: QVQLQESGPGLVKPSQTLSLTCTVSGYSISSDSAWSWIRQPPGKKLEWIGYIQYSGSTNYNPSLKSRVTISRDTSKNQFSLKLSSVTAADTAVYYCARSVNYYGNSFAVGPWGQGTLVTVSS VL: EIVLTQSPATLSLSPGERATLSCRASQGISDYLHWYQQKPGQAPRLLIKYTSQPATGIPARFSGSGSGTDFTLTISSLEPEDFAVYYCQNGHSFPLTFGAGTKLELK",0.99
6,"VH SEQ ID NO 650 / VL SEQ ID NO 382 (antibody, IgG4, V domains shown, humanized 11F2; IgG4 S228P/kappa) VH: QVQLQESGPGLVKPSQTLSLTCTVSGYSISSDSAWSWIRQPPGKKLEWIGYIQYSGSTNYNPSLKSRVTISRDTSKNQFSLKLSSVTAADTAVYYCARSVNYYGNSFAVGPWGQGTLVTVSS VL: EIVLTQSPATLSLSPGERATLSCRASQGLSDYLHWYQQKPGEAPRLLIKYASQPATGIPARFSGSGSGTDFTLTISSLEPEDFAVYYCQNGHSFPLTFGQGTKLEIK",1.9
7,"VH SEQ ID NO 650 / VL SEQ ID NO 398 (antibody, IgG4, V domains shown, humanized 11F2; IgG4 S228P/kappa) VH: QVQLQESGPGLVKPSQTLSLTCTVSGYSISSDSAWSWIRQPPGKKLEWIGYIQYSGSTNYNPSLKSRVTISRDTSKNQFSLKLSSVTAADTAVYYCARSVNYYGNSFAVGPWGQGTLVTVSS VL: EIVLTQSPATLSLSPGERATLSCRASQGVSDYLAWYQQKPGEAPRLLIKYTSQPATGIPARFSGSGSGTDFTLTISSLEPEDFAVYYCQNGHSFPLTFGQGTKLEIK",55
8,"VH SEQ ID NO 650 / VL SEQ ID NO 358 (antibody, IgG4, V domains shown, humanized 11F2; IgG4 S228P/kappa) VH: QVQLQESGPGLVKPSQTLSLTCTVSGYSISSDSAWSWIRQPPGKKLEWIGYIQYSGSTNYNPSLKSRVTISRDTSKNQFSLKLSSVTAADTAVYYCARSVNYYGNSFAVGPWGQGTLVTVSS VL: EIVLTQSPATLSLSPGERATLSCRASQGISDYLHWYQQKPGQAPRLLIKYTSQPATGIPARFSGSGSGTDFTLTISSLEPEDFAVYYCQNGHSFPLTFGQGTKLEIK",1.1
9,"VH SEQ ID NO 650 / VL SEQ ID NO 366 (antibody, IgG4, V domains shown, humanized 11F2; IgG4 S228P/kappa) VH: QVQLQESGPGLVKPSQTLSLTCTVSGYSISSDSAWSWIRQPPGKKLEWIGYIQYSGSTNYNPSLKSRVTISRDTSKNQFSLKLSSVTAADTAVYYCARSVNYYGNSFAVGPWGQGTLVTVSS VL: EIVLTQSPATLSLSPGERATLSCRASQGLSDYLAWYQQKPGEAPRLLIKYASQPATGIPARFSGSGSGTDFTLTISSLEPEDFAVYYCQNGHSFPLTFGQGTKLEIK",35
10,"VH SEQ ID NO 650 / VL SEQ ID NO 374 (antibody, IgG4, V domains shown, humanized 11F2; IgG4 S228P/kappa) VH: QVQLQESGPGLVKPSQTLSLTCTVSGYSISSDSAWSWIRQPPGKKLEWIGYIQYSGSTNYNPSLKSRVTISRDTSKNQFSLKLSSVTAADTAVYYCARSVNYYGNSFAVGPWGQGTLVTVSS VL: EIVLTQSPATLSLSPGERATLSCRASQGLSDYLAWYQQKPGQAPRLLIKYTSQPATGIPARFSGSGSGTDFTLTISSLEPEDFAVYYCQNGHSFPLTFGQGTKLEIK",46

# Further binders by falling Kd, results first:
row,Kd [nM],Binder
1,180,"VH SEQ ID NO 650 / VL SEQ ID NO 406 (antibody, IgG4, V domains shown, humanized 11F2; IgG4 S228P/kappa) VH: QVQLQESGPGLVKPSQTLSLTCTVSGYSISSDSAWSWIRQPPGKKLEWIGYIQYSGSTNYNPSLKSRVTISRDTSKNQFSLKLSSVTAADTAVYYCARSVNYYGNSFAVGPWGQGTLVTVSS VL: EIVLTQSPATLSLSPGERATLSCRASQGVSDYLAWYQQKPGQAPRLLIKYASQPATGIPARFSGSGSGTDFTLTISSLEPEDFAVYYCQNGHSFPLTFGAGTKLEIK"
2,99,"VH SEQ ID NO 650 / VL SEQ ID NO 390 (antibody, IgG4, V domains shown, humanized 11F2; IgG4 S228P/kappa) VH: QVQLQESGPGLVKPSQTLSLTCTVSGYSISSDSAWSWIRQPPGKKLEWIGYIQYSGSTNYNPSLKSRVTISRDTSKNQFSLKLSSVTAADTAVYYCARSVNYYGNSFAVGPWGQGTLVTVSS VL: EIVLTQSPATLSLSPGERATLSCRASQGVSDYLAWYQQKPGEAPRLLIKYASQPATGIPARFSGSGSGTDFTLTISSLEPEDFAVYYCQNGHSFPLTFGQGTKLEIK"
3,39,"VH SEQ ID NO 650 / VL SEQ ID NO 446 (antibody, IgG4, V domains shown, humanized 11F2; IgG4 S228P/kappa) VH: QVQLQESGPGLVKPSQTLSLTCTVSGYSISSDSAWSWIRQPPGKKLEWIGYIQYSGSTNYNPSLKSRVTISRDTSKNQFSLKLSSVTAADTAVYYCARSVNYYGNSFAVGPWGQGTLVTVSS VL: EIVLTQSPATLSLSPGERATLSCRASQGVSDYLAWYQQKPGQAPRLLIKYTSQPATGIPARFSGSGSGTDFTLTISSLEPEDFAVYYCQNGHSFPLTFGQGTKLEIK"
4,28,"VH SEQ ID NO 650 / VL SEQ ID NO 438 (antibody, IgG4, V domains shown, humanized 11F2; IgG4 S228P/kappa) VH: QVQLQESGPGLVKPSQTLSLTCTVSGYSISSDSAWSWIRQPPGKKLEWIGYIQYSGSTNYNPSLKSRVTISRDTSKNQFSLKLSSVTAADTAVYYCARSVNYYGNSFAVGPWGQGTLVTVSS VL: EIVLTQSPATLSLSPGERATLSCRASQGVSDYLAWYQQKPGQAPRLLIKYASQPATGIPARFSGSGSGTDFTLTISSLEPEDVAVYYCQNGHSFPLTFGQGTKLEIK"
5,28,"VH SEQ ID NO 650 / VL SEQ ID NO 430 (antibody, IgG4, V domains shown, humanized 11F2; IgG4 S228P/kappa) VH: QVQLQESGPGLVKPSQTLSLTCTVSGYSISSDSAWSWIRQPPGKKLEWIGYIQYSGSTNYNPSLKSRVTISRDTSKNQFSLKLSSVTAADTAVYYCARSVNYYGNSFAVGPWGQGTLVTVSS VL: EIVLTQSPATLSLSPGERATLSCRASQGVSDYLAWYQQKPGQAPRLLIKYASQPATGIPARFSGSGSGTDFTLTISSLEPEDFGVYYCQNGHSFPLTFGQGTKLEIK"
6,1.4,"VH SEQ ID NO 650 / VL SEQ ID NO 454 (antibody, IgG4, V domains shown, humanized 11F2; IgG4 S228P/kappa) VH: QVQLQESGPGLVKPSQTLSLTCTVSGYSISSDSAWSWIRQPPGKKLEWIGYIQYSGSTNYNPSLKSRVTISRDTSKNQFSLKLSSVTAADTAVYYCARSVNYYGNSFAVGPWGQGTLVTVSS VL: EIVLTQSPATLSLSPGERATLSCRASQGVSDYLHWYQQKPGEAPRLLIKYASQPATGIPARFSGSGSGTDFTLTISSLEPEDFAVYYCQNGHSFPLTFGQGTKLEIK"

# Source: US20220064329A1 (Novo Nordisk, published 2022)
